Assay results as given in patent publication CN116751285A (UNIV HEBEI NORMAL, dated 2023).

Molecular target: BSA (UniProt P02769 25-607)
Experiment: indirect ELISA, protein coated, anti-6xHis detection, OD450

BSA, sequence (P02769 25-607 limits assumed): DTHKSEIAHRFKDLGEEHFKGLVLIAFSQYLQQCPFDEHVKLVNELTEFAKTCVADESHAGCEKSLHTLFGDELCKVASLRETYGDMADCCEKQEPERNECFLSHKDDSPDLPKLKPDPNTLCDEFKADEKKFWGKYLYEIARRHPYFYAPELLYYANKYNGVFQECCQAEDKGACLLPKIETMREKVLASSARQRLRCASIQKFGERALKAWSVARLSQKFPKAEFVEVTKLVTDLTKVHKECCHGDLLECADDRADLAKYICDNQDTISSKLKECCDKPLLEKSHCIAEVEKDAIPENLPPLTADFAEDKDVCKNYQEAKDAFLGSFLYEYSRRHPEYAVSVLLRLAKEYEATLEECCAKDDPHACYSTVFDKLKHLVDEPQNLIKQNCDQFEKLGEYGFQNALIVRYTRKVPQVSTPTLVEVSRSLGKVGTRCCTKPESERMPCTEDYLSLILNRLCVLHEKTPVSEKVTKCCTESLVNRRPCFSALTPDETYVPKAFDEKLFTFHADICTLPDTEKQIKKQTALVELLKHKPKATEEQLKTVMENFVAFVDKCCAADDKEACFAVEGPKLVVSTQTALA

B1: VHH-A35R纳米抗体 (VHH)
VHH: AVQLVESGGGLAQTGGSLRLSCAASGRAFRDYAMAWFRQAPGKEREFVAAVSKTGYAIRYEDSVKGRFTISRDNAKNTVSLQMASLKVEDTAVYYCAADRTHRLGYSLRVDPLGYDDWGQGTQVTVSS
binding result: no binding
